Data on two molecules can be found in PMC2880790, “Solution Structure and Characterisation of the Human Pyruvate Dehydrogenase Complex Core Assembly” (Journal of Molecular Biology, 2010).

Series [1] concerns the molecule itself. Nature of the series: AUC; sedimentation velocity of the cores; 76-306 nM rE2/E3BP, 60-260 nM rE2, 116-730 nM tE2/E3BP; PEBS100 buffer (2 mM EDTA, 100 mM NaCl, 50 mM KH2PO4, pH 7.5); 20,000 rpm, 4 °C; interference optics.
For series [2], the target named is T1, bovine heart E2 of the native bovine PDC core (bE2/E3BP) (bovine, UniProt P11180 87-647).
T1 construct: E2 (dihydrolipoamide acetyltransferase) of bovine heart pyruvate dehydrogenase complex, native; also called E2 of bE2/E3BP; source: purified from bovine heart PDC (sucrose gradients in 2 M NaCl), as bE2/E3BP core
T1 sequence (looked up): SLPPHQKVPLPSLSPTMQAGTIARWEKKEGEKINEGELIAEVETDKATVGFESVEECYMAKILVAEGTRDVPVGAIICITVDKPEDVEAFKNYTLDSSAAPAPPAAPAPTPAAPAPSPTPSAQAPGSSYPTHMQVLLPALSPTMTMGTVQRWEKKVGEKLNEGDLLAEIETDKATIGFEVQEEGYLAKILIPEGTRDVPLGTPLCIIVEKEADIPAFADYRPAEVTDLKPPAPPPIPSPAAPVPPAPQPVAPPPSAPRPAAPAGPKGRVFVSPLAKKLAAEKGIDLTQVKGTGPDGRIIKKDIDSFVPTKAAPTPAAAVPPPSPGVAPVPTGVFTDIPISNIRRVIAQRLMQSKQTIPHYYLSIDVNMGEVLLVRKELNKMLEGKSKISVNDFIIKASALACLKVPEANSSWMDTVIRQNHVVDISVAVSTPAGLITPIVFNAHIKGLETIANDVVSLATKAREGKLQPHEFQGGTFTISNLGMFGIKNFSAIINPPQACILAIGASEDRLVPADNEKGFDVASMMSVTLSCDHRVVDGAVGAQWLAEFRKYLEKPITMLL
Put plainly: SAXS; beamline X33 EMBL/DESY; PEBS100 buffer; 830.9 nM rE2/E3BP and 183.1 nM bE2/E3BP used for ab initio modelling (GASBOR, icosahedral symmetry). The settings on record: both partners purified.

B1: recombinant full-length E2-only PDC core (rE2); dihydrolipoamide acetyltransferase of human pyruvate dehydrogenase complex (enzyme, UniProt P10515 87-647, looked up)
chain: SLPPHQKVPLPSLSPTMQAGTIARWEKKEGDKINEGDLIAEVETDKATVGFESLEECYMAKILVAEGTRDVPIGAIICITVGKPEDIEAFKNYTLDSSAAPTPQAAPAPTPAATASPPTPSAQAPGSSYPPHMQVLLPALSPTMTMGTVQRWEKKVGEKLSEGDLLAEIETDKATIGFEVQEEGYLAKILVPEGTRDVPLGTPLCIIVEKEADISAFADYRPTEVTDLKPQVPPPTPPPVAAVPPTPQPLAPTPSAPCPATPAGPKGRVFVSPLAKKLAVEKGIDLTQVKGTGPDGRITKKDIDSFVPSKVAPAPAAVVPPTGPGMAPVPTGVFTDIPISNIRRVIAQRLMQSKQTIPHYYLSIDVNMGEVLLVRKELNKILEGRSKISVNDFIIKASALACLKVPEANSSWMDTVIRQNHVVDVSVAVSTPAGLITPIVFNAHIKGVETIANDVVSLATKAREGKLQPHEFQGGTFTISNLGMFGIKNFSAIINPPQACILAIGASEDKLVPADNEKGFDVASMMSVTLSCDHRVVDGAVGAQWLAEFRKYLEKPITMLL
notes: E2 (dihydrolipoamide acetyltransferase) of the human pyruvate dehydrogenase complex, full-length recombinant; monomer printed as 61 kDa; 60-mer mass from composition 3,741,780 Da; Cultures were supplemented with lipoic acid on induction; source: E. coli BL21 star (DE3), pET14b, purified (zinc chelate, anion exchange, gel filtration); not shown: His tag, N-terminal, kept; copies: 60
As for B1, in series [1], the stoichiometry N (commonly the number of molecules, sites or subunits per partner or assembly) stood at 60.

B2: bovine heart E3BP of the native bovine PDC core (bE2/E3BP) (natural protein, UniProt P22439 54-501, looked up)
chain: ADPIKILMPSLSPTMEEGNIVKWLKKEGEAVSAGDALCEIETDKAVVTLDASDDGILAKIVVAEGSKNIRLGSLIGLLVEEGEDWKHVEIPKDTGPPPPAAKPSVPPPSAEPQIATPVKKEHPPGKVQFRLSPAARNILEKHALDANQGTATGPRGIFTKEDALKLVQLKQTGKITEPRPTAALPTTPAAPLPPQAAATASYPRPMIPPVSTPGQPNVEGTFTEIPASNIRRVIAKRLTESKSTIPHAYATTDCDLGAVLTARQNLVRDDIKVSVNDFIIKAAAVTLKQMPNVNASWDGEGAKQLPSIDISVAVATDRGLITPVIKDAAAKGLQEIADSVKALSKKARDGKLLPEEYQGGSFSISNLGMFGIDEFTAVINPPQACILAVGRFRPVLKLTQDEEGNAQLQQRQLITVTMSSDSRVVDDELATRFLESFKANLENPLRLA
notes: also called E3BP of bE2/E3BP; source: purified from bovine heart PDC (sucrose gradients in 2 M NaCl), as bE2/E3BP core
Consider B2, for which the binding result in series [2] is recorded as “binds”.
